Experimental data published in patent publication US8173771B2, “Humanin receptor or humanin-like polypeptide receptor” (Keio Univeristy, priority 2005, dated 2012).

Target: T1, G-CSFR/gp130 chimera proteins (Homo sapiens, UniProt P40189+Q99062)
T1 construct: the extracellular domain of the human G-CSF receptor fused to the full transmembrane domain; expressed in transfected cells; host or cells: F11 cells
T1 sequence (Q99062+P40189 with tags, fused parts or gaps): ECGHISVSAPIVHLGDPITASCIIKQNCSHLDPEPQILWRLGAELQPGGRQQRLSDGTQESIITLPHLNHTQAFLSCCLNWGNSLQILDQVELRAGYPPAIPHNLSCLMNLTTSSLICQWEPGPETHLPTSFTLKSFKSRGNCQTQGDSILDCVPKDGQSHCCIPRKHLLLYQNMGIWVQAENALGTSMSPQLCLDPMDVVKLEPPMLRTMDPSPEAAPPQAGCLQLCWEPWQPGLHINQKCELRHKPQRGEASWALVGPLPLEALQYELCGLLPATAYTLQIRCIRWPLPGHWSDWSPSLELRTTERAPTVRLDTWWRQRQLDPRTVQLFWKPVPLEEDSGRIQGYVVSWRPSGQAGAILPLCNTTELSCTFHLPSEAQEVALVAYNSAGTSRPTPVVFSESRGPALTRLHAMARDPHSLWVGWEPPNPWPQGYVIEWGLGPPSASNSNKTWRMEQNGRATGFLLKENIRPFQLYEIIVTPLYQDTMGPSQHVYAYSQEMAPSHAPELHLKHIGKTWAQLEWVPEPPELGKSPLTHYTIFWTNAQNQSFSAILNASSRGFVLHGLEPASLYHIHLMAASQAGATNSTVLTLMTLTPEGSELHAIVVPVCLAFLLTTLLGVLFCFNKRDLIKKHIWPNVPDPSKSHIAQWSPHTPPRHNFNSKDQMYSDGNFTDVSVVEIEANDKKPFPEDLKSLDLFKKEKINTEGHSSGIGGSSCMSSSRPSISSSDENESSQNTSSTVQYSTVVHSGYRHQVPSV
Assay: G-CSF stimulation of G-CSFR/gp130 chimera proteins in F11 cells, cell mortality by Trypan blue exclusion
Type: cell-based
Conditions: 100 nM; G-133 expressed
Experimental: B) F11 cells were transfected with 0.5 μg of the pcDNA3 vector or pcDNA3-APP in association with 0.5 μg of the pEFBos vector or the pEFBos vectors encoding the extracellular domain of the human G-CSF receptor fused to the full transmembrane domain and a C-terminally truncated intracytoplasmic domain of gp130 (named “G-CSFR/gp130”). G-CSFR/gp130 (277) contains the full intracytoplasmic domain of gp130 corresponding to amino acids 1-277, while G-CSFR/gp130 (25), (68), and (133) contain the intracytoplasmic domains corresponding to amino acids 1-25, 1-68, and 1-133, respectively. At 24 hr after transfection, the cells were added with indicated amounts of human G-CSF. Cell mortality was determined by Trypan blue exclusion assay at 72 hr after transfection. The results of immunoblot analysis of the expression of […] are shown in photos.
C) Instead of the pcDNA3-V6421-APP vector, pcDNA3-K595 N/M596L-APP (NL-APP), M146L-PS1 and N141-I-PS2 vectors were used to do the same experiments as in FIG. 2A. The results of immunoblot analysis of the expression of NL-APP, M146L-PS1 and N141-I-PS2 are shown in photos.
D) F11 cells were transfected with 0.5 μg of the pEFBos vector or pEF-G85R-SOD1 in association with 0.5 μg of the pEFBos vector or each pEFBos vector encoding G-CSFR/gp130 (277) or G-CSFR/gp130 (25). At 24 hr after transfection, the cells were added with indicated amounts of human G-CSF. Cell mortality was determined by Trypan blue exclusion assay at 72 hr after transfection. The results of the expression of G85R-SOD1, which were confirmed by the immunoblot analysis, are shown in photos.
Neurohybrid F11 cells and pcDNA3 vectors encoding V642I-APP, K595N/M596L-APP (NL-APP), M146L-PS1, and N141I-PS2 cDNA were prepared as already described (Hashimoto et al, 2000, 2001a, 2003). pCAG-human gp130 and pCAG-human gp130 ED (the extracellular domain of human gp130) were prepared as described (Kumanogoh et al., 1997). pcDNA3 vectors encoding the extracellular domain of the G-CSF receptor fused to the full-length transmembrane domain and various portions of the intracellular domains of human gp130, were prepared as described (Fukada et al, 1996). The intracellular domain of gp130 was C-terminally truncated. A chimera protein named G-277 contained a 277 amino acid-long full intracellular domain of gp130 (SEQ ID NO:35), while G-195, G-133, G-68, and G-25 contained the amino acids 1-195 (SEQ ID NO:36), 1-133 (SEQ ID NO:37), 1-68 (SEQ ID NO:38), and 1-25 (SEQ ID NO:39) intracellular portions, respectively. C-terminally myc-tagged human WSX-1 and myc-tagged mouse CREME9 cDNAs were amplified from human and mouse embryo cDNA (BioChain) by PCR using sets of sense primers and antisense primers: 5′-[…]-3′ (SEQ ID NO:3) and 5′-[…]-3′ (SEQ ID NO:4) for human WSX-1; 5′-[…]-3′ (SEQ ID NO:5); and 5′-[…]-3′ (SEQ ID NO:6) for mouse CREME9. Plasmids encoding C-terminally V5-tagged human CNTF-R (V %-CNTF-R) and rat IL-6R (pUCM18-rat IL-6R) were purchased from Invitrogen and American Culture Collection, respectively. A pEFBos vector comprising familial ALS (FALS) gene G85R-SOD1 was kindly provided by Dr. Shoji Tsuji. Cosmid of human wild […] was constructed by inserting a full-length gp130 into a SwaI site of pAxCAwt (TaKaRa).
The transfection procedures were as described (Hashimoto et al, 2000, 2001a, 2003). F11 cells, seeded at 7×10^4/well in 6-well dishes, were transfected with indicated vectors. Transfection efficiency in these protocols has been determined to be invariably around 70%. At 72 hrs after transfection, the Trypan blue exclusion assay and LDH assay were performed as a cell-death assay and the WST-8 assay was performed as cell-viability assays (Hashimoto et al, 2000, 2001a b, 2003). HN was added to the culture medium usually at 5 hrs after transfection, but in some cases at 24 hrs after transfection.

B1: G-CSF: human G-CSF, ligand stimulating G-CSFR/gp130 chimera proteins (protein, UniProt P09919 31-207, looked up)
Granulocyte …: TPLGPASSLPQSFLLKCLEQVRKIQGDGAALQEKLVSECATYKLCHPEELVLLGHSLGIPWAPLSSCPSQALQLAGCLSQLHSGLFLYQGLLQALEGISPELGPTLDTLQLDVADFATTIWQQMEELGMAPALQPTQGAMPAFASAFQRRAGGVLVASHLQSFLEVSYRVLRHLAQP
B1 was tested, and the “prevention of neuronal cell death induced by V642I-APP” value was “partially prevented”.
